Data as given in paper PMC7644011.

Tested on: rituximab (MabThera, anti-CD20 chimeric mouse/human IgG1) (chimeric mouse/human)
Assay: ELASA
Settings: 80°C 1 min; ELASA on protein A plates, antibody 4 ug/ml; aptamers folded in 20 mM Tris pH 7.6, 100 mM NaCl, 2 mM MgCl2, 5 mM KCl, 1 mM CaCl2, 0.02% Tween 20, then diluted …

| Sequence | Kd [nM] |
| --- | --- |
| ACTTCGGCTAGTTAGGGGGTAGTTTAGATCGTCTCTACAT [C10] | 17.6 |
| GGCCATTGTGGACTTCTTTGGGTAATTCAGGGGCTCGATT [C7] | 8.8 |
